Test results as given in patent publication US8088892B2, “Inhibitors of proteins from the Rho-GEF family” (Centre National de la Recherche Scientifique (C.N.R.S.), priority 2002, dated 2012).
Values belong to the molecule of their own block, whether it stands above or below them.

Legend:
[1] = target: TrioGEFD2 (Homo sapiens, UniProt O75962); test: Co-immunoprecipitation of HA-TrioGEFD2 with GFP-TRIPα in COS cells; format: binding; parameters: using recombinant GST-TrioGEFD2 (a.a. 1848-2298), TrioDH2 (a.a. 1848-2096); made in house; details: anti-GFP IP, anti-HA western blot
Description: HA-TrioGEFD2 was co-expressed with either GFP-TRIPα (right column) or GFP alone (left column). The upper panel represents the immunoprecipitation (IP) with the anti-GFP antibody (α-GEP), followed by a western-blot (WB) using the anti-HA antibody (α-HA) and the two lower panels represent the expression of the proteins in the cell lysates.
The Inventors next wanted to determine the effect of TRIPα on GEFD2-mediated RhoA activation in intact cells. First, it was checked whether TRIPα could bind to TrioGEFD2 in mammalian cells. For that purpose, vectors expressing the variable region of TRIAPα (TRIPα) fused to GFP in the pEGFP-C3 plasmid (Clontech) were designed. GFP or GFP-TRIPα were co-expressed with pMTHA-TroGEFD2 by transfection of COS cells using Lipofectamine Plus (Life Technologies) according to the manufacturer's protocol. Immunoprecipitation of GFP-tagged constructs from COS cell lysates were done with the polyclonal rabbit anti-GFP antibody (Torrey Pines Biolabs, Inc.).

[2] = target: T1, TrioGEFD1 (Homo sapiens, UniProt O75962); test: In vitro GEF assay on RhoG; format: biochemical; parameters: key to in vitro GEF assay (inhibition): +++^2 and +^2 represent respectively a full and a partial (see FIG. 3) inhibitory effect; +++^2 and +^2 represent respectively a full and a partial (see FIG. 3) inhibitory effect; −−^2 represents a lack of inhibitory effect; details: for Effect on TrioGEFD1 exchange activity on RhoG: 20-fold molar excess, TrioGEFD1 0.1 μM, RhoG 0.3 μM
T1 construct: TrioGEFD1 (a.a. 1232-1629, 0.1 μM); made in house
Experimental: (§1) To test the specificity of TRIAPα inhibition in vitro, exchange experiments were performed either on RhoA with different RhoA-specific GEFs: Trio GEFD2 (0.4 μM), Kalirin GEFD2 (KalGEFD2, 1.7 μM), p63RhoGEF (Souchet et al., 2002) (0.4 μM) and Lbc (amino acids 172-598; Zheng et al., 1995) (0.4 μM), or on RhoG, with the RhoG-specific GEF domain of Trio (TrioGEFD1, 0.1 μM). Exchange assays were performed with the recombinant GEFs as described in FIG. 2A. Different concentrations of RhoGEFs were used to yield a similar nucleotide exchange efficiency. For each exchange factor, three independent experiments were done in absence (black bar) or in the presence (grey bar) of a 20-fold molar excess of TRIAPα.
An in vitro guanine nucleotide exchange (GEF) assay was used to test whether the TrioGEFD2-binding aptamers could inhibit the catalytic activity of TrioGEFD2 towards RhoA. For this purpose, the aptamers TRIAPα, TRIAPβ and TRIAPγ (including the Trx gene) were excised from pEG202 as EcoRI/NotI fragments and cloned into pGEX4T1 EcoRI/NotI. The aptamers were then expressed and purified from bacteria as GST fusion proteins, using standard procedures (Smith and Johnson, 1988). GTPase-GST fusion proteins were prepared, loaded with [^3H]GDP and the guanine nucleotide release assays were performed as described (Debant et al., 1996), using recombinant GST-TrioGEFD2 (a.a. 1848-2298), TrioDH2 (a.a. 1848-2096). For each point, 0.3 μM GTPase was mixed with or without 0.4 μM GEF in presence of non-labeled GTP, and the reaction mix was filtered after 0 min and 15 mm reaction at 25° C. The catalytic activity of TrioGEFD2 was thus measured by the decrease of the GTPase-associated radioactivity. The results are expressed as the ratio “exchange after 15 min over exchange after 0 min” (% bound [^3H]GDP-RhoA). To measure the effect of the aptamers on the exchange activity, a 20-fold molar excess of GST-TRIAPs was pre-incubated with GEFD2 (or GEFD1) for 30 min on ice before the exchange assay was carried out. For each experiment, data were obtained in triplicate. […]

[3] = system: Lbc; test: In vitro GEF assay on RhoA; format: biochemical; parameters: key to in vitro GEF assay (inhibition): +++^2 and +^2 represent respectively a full and a partial (see FIG. 3) inhibitory effect; +++^2 and +^2 represent respectively a full and a partial (see FIG. 3) inhibitory effect; −−^2 represents a lack of inhibitory effect; details: for Effect on Lbc exchange activity on RhoA: 20-fold molar excess, Lbc 0.4 μM
Experimental: as §1
(§2) An in vitro guanine nucleotide exchange (GEF) assay was used to test whether the TrioGEFD2-binding aptamers could inhibit the catalytic activity of TrioGEFD2 towards RhoA. For this purpose, the aptamers TRIAPα, TRIAPβ and TRIAPγ (including the Trx gene) were excised from pEG202 as EcoRI/NotI fragments and cloned into pGEX4T1 EcoRI/NotI. The aptamers were then expressed and purified from bacteria as GST fusion proteins, using standard procedures (Smith and Johnson, 1988). GTPase-GST fusion proteins were prepared, loaded with [^3H]GDP and the guanine nucleotide release assays were performed as described (Debant et al., 1996), using recombinant GST-TrioGEFD2 (a.a. 1848-2298), TrioDH2 (a.a. 1848-2096). For each point, 0.3 μM GTPase was mixed with or without 0.4 μM GEF in presence of non-labeled GTP, and the reaction mix was filtered after 0 min and 15 mm reaction at 25° C. The catalytic activity of TrioGEFD2 was thus measured by the decrease of the GTPase-associated radioactivity. The results are expressed as the ratio “exchange after 15 min over exchange after 0 min” (% bound [^3H]GDP-RhoA). To measure the effect of the aptamers on the exchange activity, a 20-fold molar excess of GST-TRIAPs was pre-incubated with GEFD2 (or GEFD1) for 30 min on ice before the exchange assay was carried out. For each experiment, data were obtained in triplicate.
(§3) The effect of GST-TRIAPα on other Rho-GEFs that display in vitro exchange activity on RhoA was next tested to investigate whether TRIAPα inhibition was specific of TrioGEFD2. The exchange activities of the RhoGEF Lbc (a.a. 1-424, FIG. 3)(Zheng et al., 1995) and Dbl (a.a. 495-826, data not shown) were not affected by GST-TRIAPα. The effect of GST-TRIAPα on the catalytic activity of RhoGEFs that display a high sequence similarity with TrioGEFD2 was then tested: the recently identified RhoA-specific p63RhoGEF (Souchet et al., 2002) (a.a. 149-374, 71.5% identity with TrioGEFD2, 0.4 μM) and the second Rho-GEF domain of the Trio family member Kalirin (KalGEFD2, a.a. 1850-2190, 65% identity with TrioGEFD2, 1.7 μM). Different concentrations of RhoGEFs were used to yield similar nucleotide exchange […]. For each exchange factor, three independent experiments were done in absence or in the presence of a 20-fold molar excess of GST-TRIAPα. […] Thus, the in vitro inhibitory activity of TRIAPα was selective for TrioGEFD2 (see table I for summary of the tested RhoGEFs).

[4] = target: T2, p63RhoGEF (Homo sapiens, UniProt Q86VW2); test: In vitro GEF assay on RhoA; format: biochemical; parameters: key to in vitro GEF assay (inhibition): +++^2 and +^2 represent respectively a full and a partial (see FIG. 3) inhibitory effect; +++^2 and +^2 represent respectively a full and a partial (see FIG. 3) inhibitory effect; −−^2 represents a lack of inhibitory effect; details: for Effect on p63RhoGEF exchange activity on RhoA: 20-fold molar excess, p63RhoGEF 0.4 μM
T2 construct: (a.a. 149-374, 71.5% identity with TrioGEFD2, 0.4 μM); made in house
Experimental: as §1, §2, §3

T2 sequence (Q86VW2 149-374): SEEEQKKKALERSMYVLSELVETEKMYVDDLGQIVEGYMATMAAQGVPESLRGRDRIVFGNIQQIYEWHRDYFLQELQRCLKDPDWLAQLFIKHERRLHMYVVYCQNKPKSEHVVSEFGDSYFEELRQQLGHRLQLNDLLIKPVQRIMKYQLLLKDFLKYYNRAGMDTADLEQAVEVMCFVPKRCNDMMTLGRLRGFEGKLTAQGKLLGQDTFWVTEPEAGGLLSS
Lbc, sequence (Q12802 1994-2333 limits assumed): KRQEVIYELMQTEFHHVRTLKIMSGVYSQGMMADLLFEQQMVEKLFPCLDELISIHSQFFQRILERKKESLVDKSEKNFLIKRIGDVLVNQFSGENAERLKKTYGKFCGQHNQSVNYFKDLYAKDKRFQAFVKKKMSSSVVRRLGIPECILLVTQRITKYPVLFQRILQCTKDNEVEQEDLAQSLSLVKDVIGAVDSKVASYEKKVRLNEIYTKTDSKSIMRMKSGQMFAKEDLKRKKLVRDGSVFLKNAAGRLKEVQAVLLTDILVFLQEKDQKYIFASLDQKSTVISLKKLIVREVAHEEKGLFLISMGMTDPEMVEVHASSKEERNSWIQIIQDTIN

Molecule: AREGADGAICGYNLATLVMLGPSERVFCPLCEPCSSDIYELM [TRIPα, 42-amino acid peptide corresponding to the variable region of TRIAPα]
- Interaction with TrioGEFD2 in mammalian cells [1]: interacts with TrioGEFD2 in mammalian cells

- Effect on TrioGEFD1 exchange activity on RhoG [2]: has no effect
- Effect on TrioGEFD1 exchange activity on RhoG ([2]; listed as GST-TRIAPα): did not block
- in vitro GEF assay (inhibition) ([2]; RhoGEF TrioDH1PH1): −−^2
- Effect on p63RhoGEF exchange activity on RhoA [4]: has no effect
- Effect on p63RhoGEF exchange activity on RhoA ([4]; listed as GST-TRIAPα): had no effect
- in vitro GEF assay (inhibition) ([4]; RhoGEF p63RhoGEF): −−^2
B1: TRIAPα: aptamer of 154 amino acids: variable region of 42 amino acids inserted into the thioredoxin protein; tested as GST fusion (protein)
chain: MSDKIIHLTDDSFDTDVLKADGAILVDFWAEWCGPAREGADGAICGYNLATLVMLGPSERVFCPLCEPCSSDIYELMGPCKMIAPILDEIADEYQGKLTVAKLNIDQNPGTAPKYGIRGIPTLLLFKNGEVASATKVGALSKGQLKEFLDANLA
- Effect on Lbc exchange activity on RhoA [3]: has no effect
- Effect on Lbc exchange activity on RhoA ([3]; listed as GST-TRIAPα): not affected
- in vitro GEF assay (inhibition) ([3]; RhoGEF Lbc): −−^2
